# Measured values taken from patent US10729745B2, “Use of La1-like peptide isolated from maurus palmatus venom as an activator of sperm motility in mammals” (IMV Technologies, priority 2016, dated 2020).
# B1: La-1-like peptide (peptide)
# chain: SGESCKAGKFTVLVGHQQNDKSTCTLYKCLNFKRKYALQISSCADVDLKSGCRQVPGAASANFPECCPMVICK
# modifications: S Maurus palmatus
# How the values were obtained:
# Assay type in all cases: cell-based
# [1] = system: testicular sperm from macaca; test: Motility activation in testicular sperm from Macaca (CASA); conditions: non-human primate testicular sperm, FIGS. 3 and 4
# Description: FIG. 3: Measurement of motile cells and progressive cells after incubation of testicular sperm from macaca (non-human primate) with (7.8 Kda peptide) and without (Control) peptide SEQ ID NO. 1. Motile sperm and progressive sperm were characterized by VAP>1 μm/s and VAP>30 μm/s and STR>70%, respectively. STR=VSL/VAP. Statistical analyses were performed with SigmaPlot. t tests were used to compare the effects of La1-like peptide on sperm motility parameters. Data represent mean±SEM. Statistical tests with a 2-tailed P values 0.05 were considered significant. […]
# After 10 minutes incubation with the peptide according to SEQ ID NO. 1 (natural, or synthesized), the sperm suspension was immediately placed onto an analysis chamber (Leja Products B.V., Netherlands) of 100 μm depth for mouse sperm and 20 μm depth for human, NHP and bovine sperm, and kept at 37° C. for microscopic quantitative study of sperm movement. Sperm motility parameters were measured at 37° C. using a sperm analyzer (Hamilton Thorn Research, Beverley). […] The motility parameters measured were curvilinear velocity (VCL) and amplitude of lateral head displacement (ALH). A minimum of 100 motile spermatozoa was analyzed for each assay. […]
# Macaca testes were collected after euthanasia. […] 1, sperm motility was measured using the same conditions as those in Example 2.
# sperm [2] = test: Toxicity on sperm (sperm vitality)
# Description: Forty μL of sperm were mixed with 20 μL of eosin 1% diluted in NaCl 9/1000 and 20 μL of nigrosine 10% diluted in NaCl 9/1000. Sperm were then layered onto glass slide and dried. A minimum of 100 spermatozoa was analyzed for each assay.
# sperm [3] = test: Sperm motility tests by the applicants (comparison with papaverine, duration of effect, synthetic versus venom peptide)
# human ejaculated sperm = test: Motility of fresh and frozen human ejaculated sperm incubated with the peptide (Example 5, FIG. 5)
# Description: FIG. 5: Measurement of % motile cells and progressive cells after incubation of fresh (left hand panel) and frozen (right hand panel) human ejaculated sperm with (7.8 kDa peptide) or without (Control) the peptide according to SEQ ID NO. 1. Motile sperm and progressive sperm were characterized by VAP>1 μm/s and VAP>30 μm/s and STR>70%, respectively. STR=VSL/VAP. Statistical analyses were performed with SigmaPlot. t tests were used to compare the effects of La1-like peptide on sperm motility parameters. Data represent mean±SEM. Statistical tests with a 2-tailed P values≤0.05 were considered significant.
# (§1) Human sperm were obtained from patient consulting at the fertility department of Grenoble, following approval by the ethical committee and informed consent from the patients. All patients gave an informed consent for the conservation of the remnant sperm in the Germetheque biobank and their use in studies on human fertility in accordance with the Helsinki Declaration of 1975 on human experimentation. The Germetheque Scientific Committee approved the present study design. Ejaculate was liquefied at 37° C. for 30 min and sperm were washed twice in Sperm Preparation Medium (Origio, Målov, Denmark) at 500 g for 5 min. Concentration is then adjusted for CASA analysis. Sperm were also frozen with SpermFreeze (Fertipro NV, Beernem, Belgium) for further analysis as frozen sperm.
# (§2) After 10 minutes incubation with the peptide according to SEQ ID NO. 1 (natural, or synthesized), the sperm suspension was immediately placed onto an analysis chamber (Leja Products B.V., Netherlands) of 100 μm depth for mouse sperm and 20 μm depth for human, NHP and bovine sperm, and kept at 37° C. for microscopic quantitative study of sperm movement. Sperm motility parameters were measured at 37° C. using a sperm analyzer (Hamilton Thorn Research, Beverley). The settings employed for analysis were as follows for human, NHP, bovine and mouse respectively: acquisition rate (60;60;60;60) Hz; number of frames: (30;20;30;45); minimum contrast: (80;80;80;50); minimum cell size: (3;4;5;5); low static-size gate: (0,85;0,79;0,1;0,3); high static-size gate: (4,24;2,52;3,4;1,95); low static-intensity gate: (0,39;0,62;0,3;0,5); high static-intensity gate: (1,4;1,4;1,7;1,3); minimum elongation gate: (0;2;8;0); maximum elongation gate: (85;50;97;87); magnification factor: (1,89;1,89;1,89;0,7). The motility parameters measured were curvilinear velocity (VCL) and amplitude of lateral head displacement (ALH). A minimum of 100 motile spermatozoa was analyzed for each assay. Motile sperm were defined by VAP>(1;1;1;1) and progressive sperm were defined by VAP>(25;25;50;30) and STR>(80;80;70;70).
# [4] = system: mouse oocytes and capacitated sperm; test: Fertilization study in mice (in vitro fertilization, 2-cell embryos scored)
# Description: Eggs were collected from mature OF1 females, synchronized with 5 units of pregnant mare serum gonadotrophin (PMSG) and 5 units of human chorionic gonadotrophin (hCG). Sperm were capacitated for 55 minutes in M16 2% BSA (37° C., 5% CO2) and introduced into droplets containing oocytes. The active peptide was introduced into droplets at the same time. Oocytes were incubated with 1.5×10^5 to 5×10^5 capacitated sperm/ml (37° C., 5% CO2) in M16 medium and unbound sperm were washed away after 4 hours incubation. Twenty-four hours after fertilization, the different stages, i.e. unfertilized oocytes (including aborted embryos and corresponding to fragmented oocytes or oocytes blocked after the extrusion of the second polar body) and 2-cell embryos (as an indication of successful fertilization) were scored.
# human sperm = test: Velocity test on human spermatozoa treated with the peptide (computer-assisted motility analysis, CASA)
# From the text: as §1, §2
# [5] = fresh human sperm samples, FIG. 5 left-hand panel
# [6] = frozen human sperm samples, FIG. 5 right-hand panel
molecule,measurement,setting,value
B1,non-progressive velocity of sperm cells,[1],increase
same,progressive velocity of sperm cells,[1],increase
same,toxicity on sperm,sperm [2],no toxicity
same,duration of effect on sperm motility,sperm [3],long lasting effect
same,comparison with papaverine,sperm [3]; compared to papaverine,superiority
same,biological activity of synthesized peptide versus peptide isolated from venom,sperm [3]; peptide synthesized using Native Chemical Ligation Strategy,retains the biological activity
same,non-progressive motility,human ejaculated sperm; [5],increases
same,progressive motility,human ejaculated sperm; [5],increases
same,non-progressive motility,human ejaculated sperm; [6],increases
same,progressive motility,human ejaculated sperm; [6],increases
same,"effect on motility, frozen samples versus fresh samples",human ejaculated sperm; human sperm,greater for the frozen samples
same,toxicity,[4],not toxic
same,increase of rate of fertilization compared to the control,[4]; number of embryos at the two cell stage,approximately 20%
same,embryo development,[4]; two cell stage,does not prevent embryo development
same,sperm motility after incubation,"human sperm; human sperm, incubation with peptide, FIG. 2B",increase in sperm motility
same,increase in lateral amplitude (ALH),human sperm; initial lateral amplitude of less than 3.5 μm versus higher initial ALH values,greater increases
same,increase in motility (VAP),human sperm; sperm having an initial VAP of 60 μm/s,about 20%
same,increase in path velocity (VAP),human sperm; sperm having low initial path velocity (VAP),up to 80%
same,motility activation with respect to initial track speed (VCL),"human sperm; sperm with low initial track speed compared to higher initial track speeds, FIG. 2B upper left panel",higher motility activation
